Measured values: publication PMC5147519

Molecular target: K18 WT tau (tau four-repeat domain), poly-histidine tag intact (human)
Test: SDS-PAGE and Western blot (SDS-resistant dimers and aggregates); soluble and pellet fractions of IPTG-induced E. coli, 15% Tris-glycine SDS-PAGE, blot with polyclonal anti-human tau A0024

- stoichiometry N: 2
Substance: K18 WT tau (tau four-repeat domain), poly-histidine tag intact (domain or fragment)
